Data taken from US20200054723A1 (ALLAKOS, published 2020).

Experiments:
[1] = biological target: T1, baboon Siglec-8 Domains 1, 2, and 3 Fusion Protein (olive baboon (Papio anubis)); assay: ELISA, baboon cross-reactivity
T1 construct: fused to human Ig-Fc
Description: To identify the region comprising the epitope for anti-Siglec-8 antibodies, fusion proteins containing each of the Siglec-8 extracellular domains fused to human Ig-Fc were expressed and purified from CHO cells.
For the antibody binding assays, ELISA plates (MaxiSorp; Nunc) were coated overnight at 4° C. with fusion protein at 0.2 μg/ml and blocked for 1 hour at room temperature with 2% BSA in PBS. Antibodies at 1 μg/ml were added and the plates were incubated for 2 hours at room temperature. After washing the plates, horseradish peroxidase conjugated secondary antibody was added and the plates were incubated for 1 hour. Secondary antibodies were anti-human H+L HRP (Jackson ImmunoResearch, Catalog Number 709-035-149) for humanized antibodies or anti-mouse H+L HRP (Jackson ImmunoResearch, Catalog Number 715-035-151) for mouse antibodies. The plates were developed with TMB Substrate (Sigma, Catalog Number T0440-1L).

[2] = biological target: human Siglec-8 on human cells (eosinophils, mast cells) (human, UniProt Q9NYZ4 17-499); assay: cell-based or functional assay
[3] = biological target: T2, human Siglec-8 Domains 1, 2, and 3 Fusion Protein (human); assay: Western blot of reduced SDS-PAGE (linear epitope)
T2 construct: fused to human Ig-Fc, expressed in CHO cells; also called Domain 1 + 2 + 3-Fc

[4] = biological target: T3, recombinant human Siglec-8 extracellular domain (ECD) (human, UniProt Q9NYZ4 17-363); assay: ELISA, coated Siglec-8 ECD
T3 construct: extracellular domain; also called Siglec-8 ECD; full Siglec-8 ECD
T3 sequence (Q9NYZ4 17-363): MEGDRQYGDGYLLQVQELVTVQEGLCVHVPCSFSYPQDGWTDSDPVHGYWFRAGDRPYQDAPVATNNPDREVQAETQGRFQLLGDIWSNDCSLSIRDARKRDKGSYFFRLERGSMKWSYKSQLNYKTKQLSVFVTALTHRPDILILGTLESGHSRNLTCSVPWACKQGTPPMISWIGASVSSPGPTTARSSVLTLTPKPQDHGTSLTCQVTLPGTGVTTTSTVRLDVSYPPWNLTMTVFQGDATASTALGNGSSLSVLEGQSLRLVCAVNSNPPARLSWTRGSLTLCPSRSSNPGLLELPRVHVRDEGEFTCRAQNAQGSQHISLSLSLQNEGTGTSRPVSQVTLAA

T1 sequence (chain, as listed by the source limits assumed): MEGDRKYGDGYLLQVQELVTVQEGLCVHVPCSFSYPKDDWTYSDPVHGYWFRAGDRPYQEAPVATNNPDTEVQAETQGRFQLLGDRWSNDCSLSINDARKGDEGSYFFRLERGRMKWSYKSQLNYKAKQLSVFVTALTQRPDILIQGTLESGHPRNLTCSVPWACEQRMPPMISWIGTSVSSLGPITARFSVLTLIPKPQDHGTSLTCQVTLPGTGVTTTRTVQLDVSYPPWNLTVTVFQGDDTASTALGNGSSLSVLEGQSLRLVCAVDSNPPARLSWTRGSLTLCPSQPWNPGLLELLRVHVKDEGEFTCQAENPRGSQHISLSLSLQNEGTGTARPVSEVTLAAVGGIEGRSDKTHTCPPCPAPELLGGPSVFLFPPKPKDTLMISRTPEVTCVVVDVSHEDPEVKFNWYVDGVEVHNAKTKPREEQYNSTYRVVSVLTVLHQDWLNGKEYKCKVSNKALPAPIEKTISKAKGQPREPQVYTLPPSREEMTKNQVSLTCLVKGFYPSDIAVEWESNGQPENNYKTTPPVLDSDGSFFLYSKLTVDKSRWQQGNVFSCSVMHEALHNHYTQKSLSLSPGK
T2 sequence (chain, as listed by the source limits assumed): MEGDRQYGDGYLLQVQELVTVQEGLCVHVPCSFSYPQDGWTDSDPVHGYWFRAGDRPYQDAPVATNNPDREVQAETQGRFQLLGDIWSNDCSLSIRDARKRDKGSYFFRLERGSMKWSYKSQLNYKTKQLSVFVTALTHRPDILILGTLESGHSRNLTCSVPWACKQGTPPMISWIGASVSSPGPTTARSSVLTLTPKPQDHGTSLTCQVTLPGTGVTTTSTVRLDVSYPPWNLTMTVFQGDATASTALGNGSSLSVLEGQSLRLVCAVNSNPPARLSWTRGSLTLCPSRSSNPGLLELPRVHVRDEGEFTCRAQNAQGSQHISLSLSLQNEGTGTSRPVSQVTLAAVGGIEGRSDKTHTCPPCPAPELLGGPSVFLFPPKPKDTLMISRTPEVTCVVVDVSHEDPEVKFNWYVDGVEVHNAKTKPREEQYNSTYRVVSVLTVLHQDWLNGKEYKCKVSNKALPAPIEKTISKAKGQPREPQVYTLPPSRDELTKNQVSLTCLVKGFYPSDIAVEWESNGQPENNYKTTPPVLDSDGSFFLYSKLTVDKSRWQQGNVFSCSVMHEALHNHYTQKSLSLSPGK
Sequence of human Siglec-8 on human cells (eosinophils, mast cells) (Q9NYZ4 17-499): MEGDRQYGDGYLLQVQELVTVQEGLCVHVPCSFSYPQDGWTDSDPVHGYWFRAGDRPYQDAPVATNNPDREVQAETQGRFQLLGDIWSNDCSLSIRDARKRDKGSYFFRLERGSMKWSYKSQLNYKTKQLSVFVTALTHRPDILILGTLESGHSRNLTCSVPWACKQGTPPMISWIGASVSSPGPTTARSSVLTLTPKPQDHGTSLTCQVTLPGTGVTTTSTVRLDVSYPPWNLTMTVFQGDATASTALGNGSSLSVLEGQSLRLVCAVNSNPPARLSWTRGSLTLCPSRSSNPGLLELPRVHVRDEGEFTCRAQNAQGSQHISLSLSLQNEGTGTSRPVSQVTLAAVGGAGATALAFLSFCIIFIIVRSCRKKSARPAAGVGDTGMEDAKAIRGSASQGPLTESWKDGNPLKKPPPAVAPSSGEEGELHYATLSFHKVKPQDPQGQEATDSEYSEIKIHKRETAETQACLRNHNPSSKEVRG

Binder | binding result [1] | binding result [3] | binding result [4] | Mean EC50 (ng/ml) for eosinophil killing (2 donors) [2] [ng/mL]
murine 4F11 antibody (antibody, mouse IgG1, V domains shown, murine IgG1 heavy chain and kappa light chain) VH: QVQLQQSGAELVKPGASVKISCKASGYAFRSSWMNWVKQRPGKGLEWIGQIYPGDDYTNYNGKFKGKVTLTADRSSSTAYMQLSSLTSEDSAVYFCARLGPYGPFADWGQGTLVTVSA VL: QIVLTQSPAIVSASPGEKVTMTCSASSSVSYMYWYQQRPGSSPRLLIYDTSSLASGVPVRFSGSGSGTSYSLTISRIESEDAANYYCQQWNSDPYTFGGGTKLEIK | binds | binds | – | 5.9
HA2KD (antibody, human IgG1, V domains shown, human IgG1/kappa) VH: QVQLQESGPGLVKPSETLSLTCTVSGGSISIYGAHWIRQPPGKGLEWIGVIWAGGSTNYNSALMSRVTISVDTSKNQFSLKLSSVTAADTAVYYCARDGSSPYYYSMEYWGQGTLVTVSS VL: EIVLTQSPATLSLSPGERATLSCSATSSVSYMHWFQQKPGQAPRLWIYSTSNLASGIPARFSGSGSGTDFTLTISSLEPEDFAVYYCQQRSSYPFTFGPGTKLDIK | – | – | no binding | –
murine 1H10 antibody (antibody, mouse IgG1, V domains shown, murine IgG1 heavy chain and kappa light chain) VH: EVQLQQSGAELVRPGASVKLSCTASGFNIKDYYMYWVKQRPEQGLEWIGRIAPEDGDTEYAPKFQGKATVTADTSSNTAYLHLSSLTSEDTAVYYCTTEGNYYGSSILDYWGQGTTLTVSS VL: DIQMTQTTSSLSASLGDRVTISCRASQDITNYLNWYQQKPDGTVKLLIYFTSRLHSGVPSRFSGSGSGTDYSLTISNLEQEDIATYFCQQGNTLPWTFGGGTKLEIK | binds | binds | – | 41

The next lines start with results.

binding result [1] | binding result [3] | binding result [4] | Binder | Mean EC50 (ng/ml) for eosinophil killing (2 donors) [2] [ng/mL]
– | – | no binding | HA2KE (antibody, human IgG1, V domains shown, human IgG1/kappa) VH: QVQLQESGPGLVKPSETLSLTCTVSGGSISIYGAHWIRQPPGKGLEWIGVIWAGGSTNYNSALMSRVTISVDTSKNQFSLKLSSVTAADTAVYYCARDGSSPYYYSMEYWGQGTLVTVSS VL: EIVLTQSPATLSLSPGERATLSCSATSSVSYMHWFQQKPGQAPRLLIYSTSNLASGVPARFSGSGSGTDFTLTISSLEPEDFAVYYCQQRSSYPFTFGPGTKLDIK | –
– | – | no binding | HA2KG (antibody, human IgG1, V domains shown, human IgG1/kappa) VH: QVQLQESGPGLVKPSETLSLTCTVSGGSISIYGAHWIRQPPGKGLEWIGVIWAGGSTNYNSALMSRVTISVDTSKNQFSLKLSSVTAADTAVYYCARDGSSPYYYSMEYWGQGTLVTVSS VL: EIVLTQSPATLSLSPGERATLSCSATSSVSYMHWYQQKPGQAPRLLIYSTSNLASGIPARFSGSGSGTDFTLTISSLEPEDFAVYYCQQRSSYPFTFGPGTKLDIK | –
